In patent publication US20230203185A1 (ECO ANIMAL HEALTH, published 2023):

T1: native membrane bound porcine CD163 on primary porcine alveolar macrophages (porcine, UniProt Q2VL90 47-1115)
T1 construct: also called PAM CD163-WT; pPAM
T1 sequence: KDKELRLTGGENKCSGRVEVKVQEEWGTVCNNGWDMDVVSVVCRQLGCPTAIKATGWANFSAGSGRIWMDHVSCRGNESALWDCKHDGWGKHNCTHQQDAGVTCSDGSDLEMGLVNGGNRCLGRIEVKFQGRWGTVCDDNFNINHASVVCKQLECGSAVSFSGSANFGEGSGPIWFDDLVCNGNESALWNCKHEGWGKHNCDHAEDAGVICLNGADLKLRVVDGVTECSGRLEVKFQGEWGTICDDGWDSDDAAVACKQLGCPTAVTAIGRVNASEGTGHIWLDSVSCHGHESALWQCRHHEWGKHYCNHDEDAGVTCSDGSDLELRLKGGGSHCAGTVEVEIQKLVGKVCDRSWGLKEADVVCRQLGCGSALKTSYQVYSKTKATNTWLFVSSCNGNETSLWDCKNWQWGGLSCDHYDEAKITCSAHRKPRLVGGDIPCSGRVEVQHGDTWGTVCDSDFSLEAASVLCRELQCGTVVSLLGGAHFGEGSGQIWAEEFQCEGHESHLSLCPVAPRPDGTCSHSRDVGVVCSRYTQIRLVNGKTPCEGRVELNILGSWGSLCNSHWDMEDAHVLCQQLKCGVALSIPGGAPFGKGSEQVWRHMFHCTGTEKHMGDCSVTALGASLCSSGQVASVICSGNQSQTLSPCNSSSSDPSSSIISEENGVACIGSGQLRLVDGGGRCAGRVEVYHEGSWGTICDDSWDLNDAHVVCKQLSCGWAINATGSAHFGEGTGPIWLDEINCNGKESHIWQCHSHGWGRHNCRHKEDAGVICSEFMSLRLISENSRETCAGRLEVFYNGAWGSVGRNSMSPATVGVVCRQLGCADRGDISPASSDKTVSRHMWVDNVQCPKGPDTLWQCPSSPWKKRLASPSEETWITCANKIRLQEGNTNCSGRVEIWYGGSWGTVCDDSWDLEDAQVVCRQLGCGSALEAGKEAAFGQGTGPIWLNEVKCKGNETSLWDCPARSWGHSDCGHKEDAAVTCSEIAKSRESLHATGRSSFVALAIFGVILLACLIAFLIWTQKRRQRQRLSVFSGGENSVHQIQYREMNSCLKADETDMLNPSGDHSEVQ

T2: pCD163-SRCR1-9-huFc (porcine, UniProt Q2VL90 47-1028, limits assumed)
T2 construct: also called pCD163:SRCR1-9-Fc; pCD163SRCR1-9-Fc; not shown: human Fc (huFc)
T2 sequence: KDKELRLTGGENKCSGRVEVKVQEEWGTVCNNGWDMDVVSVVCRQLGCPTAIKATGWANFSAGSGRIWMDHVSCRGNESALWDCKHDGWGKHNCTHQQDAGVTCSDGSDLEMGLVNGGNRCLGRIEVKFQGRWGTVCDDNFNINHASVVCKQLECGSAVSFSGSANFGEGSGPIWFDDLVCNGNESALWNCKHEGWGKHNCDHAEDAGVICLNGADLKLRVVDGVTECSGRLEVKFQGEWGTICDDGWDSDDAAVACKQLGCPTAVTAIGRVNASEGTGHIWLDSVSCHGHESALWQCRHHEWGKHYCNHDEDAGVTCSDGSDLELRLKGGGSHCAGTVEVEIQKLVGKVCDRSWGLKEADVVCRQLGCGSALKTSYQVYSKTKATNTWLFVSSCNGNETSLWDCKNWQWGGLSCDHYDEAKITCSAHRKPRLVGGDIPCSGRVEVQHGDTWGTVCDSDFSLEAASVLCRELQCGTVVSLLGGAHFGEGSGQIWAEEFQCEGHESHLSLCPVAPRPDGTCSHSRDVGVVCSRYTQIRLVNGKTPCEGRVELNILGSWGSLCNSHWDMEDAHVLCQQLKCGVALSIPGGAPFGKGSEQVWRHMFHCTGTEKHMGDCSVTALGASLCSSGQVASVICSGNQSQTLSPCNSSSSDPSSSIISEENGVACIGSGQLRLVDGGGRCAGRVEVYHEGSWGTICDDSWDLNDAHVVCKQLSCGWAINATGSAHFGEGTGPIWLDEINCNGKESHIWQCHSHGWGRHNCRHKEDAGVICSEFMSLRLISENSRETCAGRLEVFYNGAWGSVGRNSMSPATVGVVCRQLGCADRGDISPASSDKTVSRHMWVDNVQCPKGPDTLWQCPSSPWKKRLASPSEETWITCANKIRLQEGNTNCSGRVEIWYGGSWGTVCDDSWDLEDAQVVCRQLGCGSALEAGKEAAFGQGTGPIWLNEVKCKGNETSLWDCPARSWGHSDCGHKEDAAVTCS


Key:
[1] = biological target: control human IgG (human); assay: ELISA, periplasmic extract on control IgG
[2] = biological target: T1, native membrane bound porcine CD163 on …; assay: flow cytometry, PAM CD163-WT, RT
[3] = biological target: T3, pCD163-SRCR4-7-huFc (porcine, UniProt Q2VL90 372-818, limits assumed); assay: ELISA, periplasmic extract on coated antigen
T3 construct: also called pCD163:SRCR4-7-Fc; pCD163-SRCR4-7-Fc; not shown: human Fc (huFc)

[4] = biological target: T2, pCD163-SRCR1-9-huFc; assay: ELISA, periplasmic extract on coated antigen

| Binder | O.D. 450 [1] [O.D. 450] | % Binding [2] [%] | MFI [2] [MFI] | O.D. 450 [3] [O.D. 450] | O.D. 450 [4] [O.D. 450] |
| --- | --- | --- | --- | --- | --- |
| VHH 015 (2G01) (VHH, Llama single domain antibody; also called 150(#15); VHCDR3 150(#15); not shown: tags: c-myc tag in periplasmic extract (ELISA, FACS); FLAG and His tags in purified VHH (SPR, infection assays)) VHH: QVQLVESGGGLVQAGDTLRLSCTASGRTFSSYSMGWFRQAPGKEREFVAAITWNGYITNYADSVKGRFTISRDNTKNTVFLQMNSLKPEETAVYYCAATTFSTTSPISRTYNYWGPGTQVTVSS | 0.058 | 20.4 | 1660 | 4.37 | 1.18 |
| VHH 001 (1B02) (VHH, Llama single domain antibody; also called 144(#1); VHCDR3 144(#1); not shown: tags: c-myc tag in periplasmic extract (ELISA, FACS); FLAG and His tags in purified VHH (SPR, infection assays)) VHH: EVQLVESGGGLVQAGGSLSLSCAASGGTLAMYAMSWFRQAPGKDRKFVAAINTSGRYSRYADSVKGRFTISRDNAKNTATLQMNSLEPEDTAVYYCAATDKGNWALAMSYDYWGQGTQVTVSS | 0.059 | 0.69 | 722 | 0.416 | 0.109 |
| VHH 017 (3D03) (VHH, Llama single domain antibody; also called 29(#17); VHCDR3 29(#17); not shown: tags: c-myc tag in periplasmic extract (ELISA, FACS); FLAG and His tags in purified VHH (SPR, infection assays)) VHH: QLQLVESGGGLVQPGGSLRLSCAASGFTLDDYTIGWFRQAPGKEREGVSCINSITSNTYYADSVKGRFTISRDNAKNTVYLQMNSLTAEDTAIYYCAADSGLFSGSSCLKYRAMRFGSWGQGTQVTVSS | 0.053 | 37.2 | 2290 | 0.116 | 0.137 |
| VHH 012 (2C07) (VHH, Llama single domain antibody; also called 41(#12); VHCDR3 41(#12); not shown: tags: c-myc tag in periplasmic extract (ELISA, FACS); FLAG and His tags in purified VHH (SPR, infection assays)) VHH: QLQLVESGGGLVQAGGSLRLSCVASGRTFSRYAMGWFRQAPGKEREFVAAIAWSTGSTYYANSVKGRFAISGDNAKNTVYLQMNSLKPEDTAVYYCAAETRYCSGFGCLDPRTYGSWGQGTQVTVSS | 0.057 | 91.5 | 17700 | 3.14 | 0.535 |
| VHH 011 (2B06) (VHH, Llama single domain antibody; also called 57(#11); VHCDR3 57(#11); not shown: tags: c-myc tag in periplasmic extract (ELISA, FACS); FLAG and His tags in purified VHH (SPR, infection assays)) VHH: EVQLVESGGGLVQAGGSLRLSCAASGRTLSVYGTGWFRQAPGKEREFVAGISGTTGSTLYADSVKGRFTISRDNAKNTVYLQMNSLKSEDTALYYCAAGGRVYITTSSWAYWGQGTQVTVSS | 0.059 | 3.32 | 983 | 0.288 | 0.106 |
| VHH 002 (1B04) (VHH, Llama single domain antibody; also called 76(#2); VHCDR3 76(#2); not shown: tags: c-myc tag in periplasmic extract (ELISA, FACS); FLAG and His tags in purified VHH (SPR, infection assays)) VHH: QVQLVESGGGLVQAGGSLRLSCAASGLTFVTYSMGWFRQAPGKEREFVAAHRWSGSAYYAEHADSVEGRFTISRDYAKNMLYLQMNSLKHEDTAVYYCAAGVGSAAQYRYWGRGTQVTVSS | 0.057 | 1.02 | 900 | 2.39 | 0.235 |
| VHH 008 (1H01) (VHH, Llama single domain antibody; also called 78(#8); VHCDR3 78(#8); not shown: tags: c-myc tag in periplasmic extract (ELISA, FACS); FLAG and His tags in purified VHH (SPR, infection assays)) VHH: QVQLVESGGGLVQAGGSLRLSCAASGRTFGTYSMGWFRQAPGKEREFVAAHRWSGSAYYAEHADSVEGRFTISRDYAKNMLYLQMNSLKHEDTAVYYCAAGVGSEAQYRYWGRGTQVTVSS | 0.06 | 0.87 | 963 | 2.65 | 0.22 |
| VHH 016 (2H11) (VHH, Llama single domain antibody; also called 77(#16); VHCDR3 77(#16); not shown: tags: c-myc tag in periplasmic extract (ELISA, FACS); FLAG and His tags in purified VHH (SPR, infection assays)) VHH: EVQLVESGGGLVQAGGSLRLSCAASGRTFAPGSMGWFRQAPGKEREFVAAHRWSGSAYYADYADSVEGRFTISRDYAKNMVYLQMNSLKPGDTAVYYCAAGVGSAAQYTYWGRGTQVTVSS | 0.06 | 1.59 | 927 | 4.15 | 0.263 |
| VHH 023 (4E10) (VHH, Llama single domain antibody; also called 70(#23); VHCDR3 70(#23); not shown: tags: c-myc tag in periplasmic extract (ELISA, FACS); FLAG and His tags in purified VHH (SPR, infection assays)) VHH: QVQLVESGGGLVQAGGSLRLSCVASSRTSSTYAMGWFRQGPGKERDFVAIISFGGTFYADSVKGRFTISRDNAKNTVYLQMNSLKPEDTAVYYCAAGRTLSKRADSYASWGQGTQVTVSS | 0.054 | 0.56 | 843 | 4.1 | 0.577 |
| VHH 018 (3E01) (VHH, Llama single domain antibody; also called 49(#18); VHCDR3 49(#18); not shown: tags: c-myc tag in periplasmic extract (ELISA, FACS); FLAG and His tags in purified VHH (SPR, infection assays)) VHH: QVQLQESGGGLVQVGGSLRLSCVASGRAPSRYVMGWFRQAPGQEREFVAGIAWSGRAPYADSVKGRSTISRDNAKNTVYLQMNSLKPEDTGVYYCAGGEGAIRWTTLDAYDYWGQGTQVTVSS | 0.057 | 1.74 | 903 | 0.938 | 1.03 |
| VHH 020 (3H11) (VHH, Llama single domain antibody; also called 48(#20); VHCDR3 48(#20); not shown: tags: c-myc tag in periplasmic extract (ELISA, FACS); FLAG and His tags in purified VHH (SPR, infection assays)) VHH: QVQLQESGGGLVQVGGSLRLSCVASGRTPSRYVMGWFRQAPGQEREFVAGIAWSGRAPYADSVKGRFVISRDSAKNTVYLQMNSLKSEDTGVYYCAGGEGAILWTTPGAYNYWGQGTQVTVSS | 0.056 | 81.5 | 9120 | 3.36 | 2.93 |
| VHH 019 (3E11) (VHH, Llama single domain antibody; also called 47(#19); VHCDR3 47(#19); not shown: tags: c-myc tag in periplasmic extract (ELISA, FACS); FLAG and His tags in purified VHH (SPR, infection assays)) VHH: QVQLQESGGGLVQVGSSLRLSCVTSGRTPSRYVMGWFRQAPGQEREFVAAISWSGRAPYADSVKGRFTISRDNAKNTVYLQMNSLKPEDTGVYYCAGGEGAIKWTTLDAYDYWGQGTQVTVSS | 0.054 | 59.5 | 3940 | 2.43 | 2.48 |
